Assay [1] has as its target T1, recombinant Q586B2 protein (Tb927.6.4140), produced in E. coli WK6.
T1 chain: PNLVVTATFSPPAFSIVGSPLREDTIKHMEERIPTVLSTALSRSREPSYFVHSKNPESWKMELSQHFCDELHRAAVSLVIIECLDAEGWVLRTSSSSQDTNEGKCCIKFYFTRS
The assay can be described thus: ELISA. (ELISA stands for enzyme-linked immunosorbent assay.)

Assay [2] concerns the target T2, native Q586B2 (Tb927.6.4140) of Trypanosoma brucei brucei parasites (Trypanosoma brucei brucei).
T2 construct: Native protein; also called native protein
T2 chain: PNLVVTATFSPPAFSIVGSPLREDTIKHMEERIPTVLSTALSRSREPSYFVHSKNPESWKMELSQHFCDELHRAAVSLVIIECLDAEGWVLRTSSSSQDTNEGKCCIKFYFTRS
The assay can be described thus: flow cytometry on purified T. brucei brucei parasites, HA-tagged Nb, Alexa-488 anti-HA IgG.
Procedure: FIG. 4A) Representative flow cytometric profile of purified, fixed and permeabilized T. brucei brucei parasites plotted in an SSC-A versus FSC-A plot and subsequently gating on single cells (FSC-H versus FSC-A plot). 10⁶ parasites in presence or absence of 5 μg of HA-tagged Nb was used per condition.

Eight molecules from patent publication US20240156935A1 (VIB VZW, published 2024) can be followed below.

B1: Nb27 (VHH)
VHH: QVQLQESGGGLVQPGGSLRLSCTTSRSILSIYAMGWYRQAPGKQRELVAVITSGGSTYYADSVKGRFTISRDNAKNTLYLQMNSLKPEDTALYYCARGGYGTSPQPSWGQGTQVTVSS
On to B1, for which, in assay [1], the Kd was 52 nM.

B2: Nb32 (VHH)
VHH: QVQLQESGGGLVQPGGSLRLSCAASGFTFSAYAMSWVRQAPGKGLEWVSTIDSGGGSTYYADSVKGRFTISRDNAKKTLYLHMNSLKPEDTAVYYCAKRGYSDYARHVWGQGTQVTVSS
notes: Llama nanobody purified by IMAC and SEC; It was HA-tagged in flow cytometry; also called anti-Q586B2 Nb
Turning to B2, the Kd in assay [1] was determined as 46.6 nM. In addition, the binding result in assay [2] was “binds”.

B3: Nb39 (VHH)
VHH: QVQLQESGGGLVQPGGSLRLSCTASGSIFSGYAMGWYRQAPGKQRELVAGITSGGSTIYAGSVKGRFTISRDNAKNTVYLQMNSLKPEDTAVYYCKNGTYYSARDYWGQGTQVTVSS
In the case of B3, the Kd in assay [1] came to 49.9 nM.

B4: Nb58 (VHH)
VHH: QVQLQESGGGLVQPGGSLRLSCAASGRSISSIYAMGWYRQAPGKQRELVARLTSGGSSNYADSVKGRFTITRDNAQNTVYLQMNSLKPEDTAVYYCNAEPSRWWLDDDYWGQGTQVTVSS
notes: as for B2
For the molecule B4, the Kd in assay [1] worked out at 36.7 nM. Besides, in assay [2], the binding result is reported as “binds”.

B5: Nb53 (VHH)
VHH: QVQLQESGGGSVQAGGSLRLSCSASGYTYSSHCTAWFRQAPGKEREALAAINSRSGTTYYADSVKGRFTISQDNTKNTAYLQMNSLKPEDTATYFCAALSFGCTGPLASLGQGTQVTVSS
In the case of B5, the Kd in assay [1] was determined as 45.5 nM.

B6: Nb34 (VHH)
VHH: QVQLQESGGGLVQPGGSLRLSCAASGFTFSNSPMNWVRQAPGKGLEWVSAINSGGGSTYYADSVKGRFTISRDNAKNTLYLQMNSLKPEDTAVYYCAKGGRTYYSGSYYSWGMDYWGKGTQVTVSS
In the case of B6, the Kd in assay [1] amounted to 36.7 nM.

B7: Nb36 (VHH)
VHH: QVQLQESGGGLVQPGGSLRLSCAASGFAFSFYWMNWVRQAPGKGLEWVSAINSGGGSTYYADSVKGRFTISRDNAKNTLYLQMNSLKPEDTAVYYCAKGIVQRGEYYGMDYWGKGTQVTVSS
For B7, the Kd in assay [1] was determined as 11.3 nM.

B8: Nb41 (VHH)
VHH: QVQLQESGGGLVQAGGSLRLSCAASGRTFSSYAMGWFRQAPGKEREFIALISWIGGSTAYADSVKGRFTISRDNAKNTLYLQMNSLKPEDTAVYYCATDRIGRHRGPGTQVTVSS
notes: as for B2
On to B8, for which, in assay [1], the equilibrium dissociation constant (Kd) stood at 14.5 nM. Also, the binding result in assay [2] is given as “binds”.

Broadly, the Kd is the concentration at which binding is half-saturated.
